Results on eight molecules are retold here after patent US8546083B2, “Molecular accessibility assay” (University of Vermont, priority 2007, dated 2013).

The nature of test [1]: Fluorescence of DAPI binding to double stranded DNA. To be noted: 50 nM double stranded DNA, 100 nM DAPI, 10 mM Tris-HCl pH 8.0, 50 mM NaCl, 5 minutes room temperature. As for the experimental part:
(§1) For gel-based substrates, completed reactions were mixed with a dye-free SDS loading buffer (50 mM Tris-HCl (pH 6.8), 100 mM dithiothreitol, 4% SDS, 10% glycerol), heated to 90° C. for 5 minutes, separated by 12% SDS-PAGE, and visualized by PhosphorImager analysis (Bio-Rad Molecular Imager FX) (Bio-Rad Laboratories, Hercules, Calif.). For all other substrates, an equal volume of 200 nM DAPI in 10 mM Tris-HCl (pH 8.0) and 50 mM NaCl was added and incubated for 5 minutes at room temperature prior to fluorescence detection. Final concentrations of the fluorescence effecting molecules at the time of detection in these experiments were 100 nM DAPI, 50 nM substrate, and 25-800 nM enzyme.
(§2) Fluorescence readings were made on a Synergy HT Multi-Detection Microplate Reader (BIO-TEK) using a tungsten-halogen lamp and 360/40 bandpass excitation filter in conjunction with a 460/40 emission filter. Corning Half Area, NBS treated (Nonbinding Surface), Black, 96-well Microplates plates (Corning #3686) were used for all DAPI-based experiments. The combination of enzymes, DNA, and DAPI were all shown to contribute linearly to changes in the overall fluorescence based on the range of concentrations used; there was therefore no need to correct for the inner filter effect.
Each of the 4L, 5L, 5R, and N5R substrates, along with their non-damaged counterparts, were initially tested for their ability to associate with DAPI and thereby affect the detected fluorescence. […] In the absence of DNA, there was only a small increase in fluorescence from the addition of DAPI, as would be expected. The differences in fluorescence for each of the DAPI bound substrates are presumably due to both, sequence context and experimental variations in DNA concentration. For example, the 4L sequence is expected to have a lower total fluorescence due to the importance of the 3′ nucleotide following the 5′-AATT-3′ binding sequence in regards to fluorescence intensity (38). Due to the fact that the molecular accessibility assay is based on relative fluorescence, these differences are inconsequential.

In the next test the test system is 4L substrate. The test is described as follows: DAPI molecular accessibility assay, active fraction determination, 4L substrate. It counts as biochemical. The settings on record: for activity (100*α): 100 nM 4L substrate, 50 mM sodium borohydride; for active fraction / calculated α value: 4L sequence; for active fraction: NaBH4 and NaCNBH3. As for the experimental part:
(§3) Oligonucleotide substrates were purchased from Midland Certified Reagent Co. (Midland, Tex.) and were PAGE purified prior to use. All gel-based comparisons were performed with the following double stranded substrate: (35DHU) 5′-TET-tgtcaatagcaagnggagaagtcaatcgtgagtct-3′ (SEQ ID NO:1) where TET represents the fluorescent label 6-tetrachlorofluorescein and n=5,6-dihydrouracil (DHU). Molecular accessibility DAPI-based experiments were performed with the following double-stranded substrates: (4L) 5′-gccccgccaattnccgccgccgcc-3′ (SEQ ID NO:2), (5L) 5′-gccccgccaattcnccgccgccgcc-3′(SEQ ID NO:3), (5R) 5′-gccccgccgccccgccnaattccgccgccgcc-3′ (SEQ ID NO:4), and (N5R) 5′-gccccgccgccccgccncaattccgccgccgcc-3′ (SEQ ID NO:5) where n=either DHU for damaged substrates or cytosine for non-damaged controls. All complementary strands contained a G residue across from DHU (or across from the cytosine in controls—e.g. Watson-Crick base pairing) and were annealed in 50 mM Tris-HCl (pH 8.0), 50 mM NaCl by heating to 94° C. for 2 minutes and slowly cooling to 4° C. over the period of 1 hour in a Perkin Elmer DNA Thermal Cycler 480. In each case the ratio of damaged to complementary strand during annealing was 1:1.1. Note that the DAPI-based oligonucleotides all differ in location of the AT-rich region in relation to the damaged base.
(§4) EcoNth, EcoFpg, EcoNei, and NEIL1 were incubated for 30 minutes at 37° C. with 100 nM DHU:G-containing substrates at final concentrations of 50, 100, 200, 400, 800, 1200, or 1600 nM, in the presence of either 50 or 100 mM sodium borohydride (NaBH4) or sodium cyanoborohydride (NaCNBH3), as described in the Figures. Borohydride compounds were dissolved fresh for each independent experiment (one substrate and series of enzyme dilutions) as 1.25× stocks in Milli-Q water. Reactions were initiated by simultaneous addition of enzyme and borohydride solution to annealed substrates utilizing separate multi-pipettes in a 96-well format to a final volume of 100 μL. Except for EcoFpg trapping with sodium cyanoborohydride, the final buffer for each reaction contained 10 mM Tris-HCl (pH 8.0), 60 mM Na^+, and either 50 mM BH4^− or CNBH3^−. In the former case, the final buffer contained 10 mM Tris-HCl (pH 8.0), 110 mM Na^+, and 100 mM CNBH3^−.
as §1, §2
Given a sufficiently high concentration of trapping reagent, and a sufficiently long incubation time, the quantity of ES complex is related to the quantity of total enzyme added, ET, and total substrate added, ST, by the equation: ES=min(αET, βST) where α is the active enzyme fraction, P is the active substrate fraction (fraction cleavable), and min is the minimum function. […]

Another test deals with 35DHU substrate. The test is described as follows: Gel-based Schiff base trapping assay (SDS-PAGE, PhosphorImager), active fraction determination. It counts as biochemical. To be noted: for α value (active enzyme fraction): 100 nM 35DHU; for active fraction: gel-based, from α values with NaBH4 and NaCNBH3. As for the experimental part:
as §3, §4, §1
Given a sufficiently high concentration of trapping reagent, and a sufficiently long incubation time, the quantity of ES complex is related to the quantity of total enzyme added, ET, and total substrate added, ST, by the equation: ES=min(αET, βST) where α is the active enzyme fraction, P is the active substrate fraction (fraction cleavable), and min is the minimum function. Furthermore, holding ST constant while varying ET can be depicted graphically (FIG. 1A) where the rising slope is equivalent to α, the plateau is equivalent to ST*β, and the breakpoint is defined by the relation: ST=(α/β)ET. Therefore, by varying ET from below to well above the constant ST concentration, the active enzyme fraction can be determined by linear regression of all points falling below the ET breakpoint concentration. The decision to include or exclude a given point pre-breakpoint is simply made so as to minimize the root-mean squared deviation from both the pre-breakpoint regression and the post-breakpoint best-fit line with a slope of zero. […]

For the next test, the system named is 5L substrate. The test is described as follows: DAPI molecular accessibility assay, active fraction determination, 5L substrate. It counts as biochemical. The settings on record: 5L sequence, NaBH4 and NaCNBH3. How it is done:
(§5) Oligonucleotide substrates were purchased from Midland Certified Reagent Co. (Midland, Tex.) and were PAGE purified prior to use. All gel-based comparisons were performed with the following double stranded substrate: (35DHU) 5′-TET-tgtcaatagcaagnggagaagtcaatcgtgagtct-3′ (SEQ ID NO:1) where TET represents the fluorescent label 6-tetrachlorofluorescein and n=5,6-dihydrouracil (DHU). […]
as §1
(§6) Fluorescence readings were made on a Synergy HT Multi-Detection Microplate Reader (BIO-TEK) using a tungsten-halogen lamp and 360/40 bandpass excitation filter in conjunction with a 460/40 emission filter. […]

The next test deals with N5R substrate. Kind of test: DAPI molecular accessibility assay, active fraction determination, N5R substrate. It counts as biochemical. The settings on record: N5R sequence; for calculated α value: NaBH4 and NaCNBH3. As for the experimental part:
as §3
EcoNth, EcoFpg, EcoNei, and NEIL1 were incubated for 30 minutes at 37° C. with 100 nM DHU:G-containing substrates at final concentrations of 50, 100, 200, 400, 800, 1200, or 1600 nM, in the presence of either 50 or 100 mM sodium borohydride (NaBH4) or sodium cyanoborohydride (NaCNBH3), as described in the Figures. […]
as §1
Fluorescence readings were made on a Synergy HT Multi-Detection Microplate Reader (BIO-TEK) using a tungsten-halogen lamp and 360/40 bandpass excitation filter in conjunction with a 460/40 emission filter. […] The combination of enzymes, DNA, and DAPI were all shown to contribute linearly to changes in the overall fluorescence based on the range of concentrations used; there was therefore no need to correct for the inner filter effect. […]

The subject of a further test is 5R substrate. The test is described as follows: DAPI molecular accessibility assay, active fraction determination, 5R substrate. To be noted: 5R sequence, NaBH4 and NaCNBH3. It counts as biochemical. As for the experimental part: as §5, §1, §6
Setting [2] is: NaCNBH3 (50 mM EcoNth, 100 mM EcoFpg), 30 minutes 37° C.
Setting [3] is: EcoNth range stated jointly for 4L, 5L, 5R.

With 5′-gccccgccaattcnccgccgccgcc-3′ [5L], the “FI (Fluorescence Intensity)” value in test [1] is reported as 65.9 ± 2.6 x10^−3.

In the case of “5′-gccccgccgccccgccncaattccgccgccgcc-3′ [N5R]”, the “FI (Fluorescence Intensity)” value in test [1] is given as 60.7 ± 3.0 x10^−3.

For the molecule “NEIL1: human ortholog of endonuclease VIII, recent purification with good activity”, the “activity (100*α)” value in the test with 4L substrate is listed as “over 50%”.

Take 5′-gccccgccaattnccgccgccgcc-3′ [4L]: the “FI (Fluorescence Intensity)” value in test [1] is listed as 55.2 ± 2.8 x10^−3.

Regarding “5′-gccccgccgccccgccnaattccgccgccgcc-3′ [5R]”, in test [1], the “FI (Fluorescence Intensity)” value is 69.5 ± 2.9 x10^−3.

B1: EcoNth: Escherichia coli endonuclease III, purified recombinant enzyme preparation (protein, UniProt P0AB83 1-211, looked up)
Endonuclease III: MNKAKRLEILTRLRENNPHPTTELNFSSPFELLIAVLLSAQATDVSVNKATAKLYPVANTPAAMLELGVEGVKTYIKTIGLYNSKAENIIKTCRILLEQHNGEVPEDRAALEALPGVGRKTANVVLNTAFGWPTIAVDTHIFRVCNRTQFAPGKNVEQVEEKLLKVVPAEFKVDCHHWLILHGRYTCIARKPRCGSCIIEDLCEYKEKVDI
B1: the “α value (active enzyme fraction)” value was 0.199 in the test with 35DHU substrate (50 mM NaBH4, 30 minutes 37° C.) and 0.206 in the test with 35DHU substrate (setting [2]). The active fraction entry in the test on 35DHU substrate was “approximately 20%”; in the test on 4L substrate it was 19-24%; in the test on 5L substrate, 19-24%; in the test on N5R substrate (NaBH4 (first value, figure order)) it was “approximately 12%”; in the test with N5R substrate (NaCNBH3 (second value, figure order)), approximately 16%. In addition, the “calculated α value” in the test with N5R substrate was “lower”.

B2: EcoNei: Escherichia coli endonuclease VIII, purification known to have little activity (protein, UniProt P50465 2-263, looked up)
Endonuclease 8: PEGPEIRRAADNLEAAIKGKPLTDVWFAFPQLKPYQSQLIGQHVTHVETRGKALLTHFSNDLTLYSHNQLYGVWRVVDTGEEPQTTRVLRVKLQTADKTILLYSASDIEMLTPEQLTTHPFLQRVGPDVLDPNLTPEVVKERLLSPRFRNRQFAGLLLDQAFLAGLGNYLRVEILWQVGLTGNHKAKDLNAAQLDALAHALLEIPRFSYATRGQVDENKHHGALFRFKVFHRDGEPCERCGSIIEKTTLSSRPFYWCPGCQH
Turning to B2, the “activity (100*α)” value in the test on 4L substrate is on record as “less than 5%”.

B3: EcoFpg: Escherichia coli formamidopyrimidine-DNA glycosylase, purified recombinant enzyme preparation (protein, UniProt P05523 2-269, looked up)
Formamidopyrimidine-DNA …: PELPEVETSRRGIEPHLVGATILHAVVRNGRLRWPVSEEIYRLSDQPVLSVQRRAKYLLLELPEGWIIIHLGMSGSLRILPEELPPEKHDHVDLVMSNGKVLRYTDPRRFGAWLWTKELEGHNVLTHLGPEPLSDDFNGEYLHQKCAKKKTAIKPWLMDNKLVVGVGNIYASESLFAAGIHPDRLASSLSLAECELLARVIKAVLLRSIEQGGTTLKDFLQSDGKPGYFAQELQVYGRKGEPCRVCGTPIVATKHAQRATFYCRQCQK
As for B3, the “α value (active enzyme fraction)” value is given as 0.121 in the test on 35DHU substrate (50 mM NaBH4, 30 minutes 37° C.) and 0.147 in the test on 35DHU substrate (setting [2]). Besides, the active fraction entry in the test with 35DHU substrate was “approximately 13%”; with 4L substrate, “approximately 14%”; in the test on 5R substrate, approximately 11%. The “calculated α value” was 0.154 with 4L substrate (50 mM NaBH4); 0.136 in the test with 4L substrate (100 mM NaCNBH3); “significantly lower” in the test with 5L substrate (setting [3]); “slightly lower” with 5R substrate (setting [3]); “significantly lower” with N5R substrate.
